From PMC6754071 come the findings set out here.

In the data set the test system is T1, PolR (Microlunatus phosphovorus NM-1), ORF:57668f7d.
T1 sequence: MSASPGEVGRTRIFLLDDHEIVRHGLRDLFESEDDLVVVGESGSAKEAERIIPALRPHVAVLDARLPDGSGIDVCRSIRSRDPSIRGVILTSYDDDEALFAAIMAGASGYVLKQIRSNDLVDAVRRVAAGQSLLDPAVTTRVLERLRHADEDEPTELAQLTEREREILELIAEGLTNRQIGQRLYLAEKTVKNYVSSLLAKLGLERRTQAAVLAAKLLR
As to the kind of experiment: EMSA. The conditions noted are these: EMSA: 3.0 ug His-PolR, 1.0 ug poly(dI-dC), 8% native PAGE, buffer not given (cites Zhang 2014); footprinting: 30 min room temperature, DNase I 1 min 25 C.
In the case of “CAGTTCACAGTCGCGATACTAGGTCGTAAGCCCGCCTCAAGTTGCCGCTCATGGGGTCGCCACACGCAGCTACAGGGAGGGTTCGGGCTGAGTTCACCCCTCGTTCACATCCGAACTTCGCCAGCCGGTCCATTTCGGGCATAGGCTCGAAGTCGAGCTTTTCTGATCAATCCCGAGGAATCC (double strand) [phoU (MLP_RS22885) promoter]”, the binding entry is reported as “no binding”. In the case of “AGACGAGTGCTGCCGTGCACCGACTTCGCATCGGCGCCGCAACACAGTCCCCGCCCGTCGTTCGCTCGGCGTTCACCGGCGGGCCCTCGAGTCGTCAGAATGGCTGCCTAGCGTCTGGACCGGAGCCAGTGTCGCTCCTTACGTTCATTGCACGAGTCACACTCCGACAAGGGGAACGAGTGAAGAT (double strand) [pstS (MLP_RS23035) promoter]”, the binding result is recorded as “binds”.

With “TCGCTCTCGGTGTTGATCGATCCGGAGCGCCCGTCCAGACCCTGCACCGATCCGTCGAGGGTCGAGACGAAGTTGCTCCGGACGACCGGTCCGGAGCCGCCTTCGGGCCAGCGATAGAGATCGATCAGGTCTGCTCGGCTGAGCTCGGCGGATGGTCGAGGGTCCGCGTG (double strand) [pap (MLP_RS11265) promoter]”, the binding result was “no binding”.

Take “TCGTCTCGGCAGCCCTTGGGTGAACTGTTCTCCGAGCGTGAGTAACGCCTCCGGGCGAGCGAGATGAACTGTTCGTGAATCCGCCGCCCGGGGGCCGTTCCAGGTGGATTTGACCGGTTTCGGAACCCCACGATGGTCGCGTGACCGAAGCTC (double strand) [pit (MLP_RS14415) promoter]”: the binding result is reported as “no binding”. The entry for “TCAGCCATCTGGACAACCTATCGTCCACACCACACGAGATAGCCGAGTTGGTCAGGTATTGATGCGAGTTGGGGTCGAACGTCCCGTCAGATCCGGTTCGAACGCATCACCTTTGAGTGAAGGCTCATCCGACAACGGGGATCAGCACACTCCTAG (double strand) [ppk (MLP_RS23025) promoter]” is “binds”.

For the sequence “TGTGTCCCTTCCGTGAAACCTCGTCGGTGAAGTCTGGTGCGGGCGAGGGGAATCCCGCCCGGAGGGGAGGCTAAACCACCCAGGAGAATGAATGGAGTGTGGTGGCGCCTCGCGAGAATCCGAGCCGCTTCGGCGGATCGGCGCCCGAGGCTCCCTCCGGTGACAGCACGTTCACCCTGCC (double strand) [ppgk (MLP_RS12905) promoter]”, the binding result is “binds”. To “ATTTGCAGCACTCCGTTCGCCGATTTGCAGCAGGCTTCTGTTCCGTGTGGTCCCCCGACCCAGGGGACCACGGAAACAACTGCGCAGCCCCCGCCCGAGGATCACCCGGAATCTTCCCCCAGGTTTGCCCTGACCCACAGAGGACGCCGCGGGACGAAGTCAACTTCAGCGTACGGTGGAGCACA (double strand) [ppgk (MLP_RS02595) promoter]” belongs “no binding”. The entry for “TTCGACCTCCGTATTCGGCTATTCGACTGTCCACCCTCTTCGTTACCACCGAGGGAGACACGTCACATTCACAACTCCCGGTCTGCGGATCAGACCAGCGATGCTGTCCGTGACTGCGGAAAGCTGACGACCGGAGACTGAGCGCCGGGGACCCGTTAACCCATTGTTCGCCCGGCA (double strand) [ppk2 (MLP_RS02760) promoter]” is “no binding”; for “GACAGCGATCACGGAGATCAGTAGCCAGTCCATGATTGATCTTCCCCTTGCACGGTCAACAACGACAACCCAATCGTCGTGCCATGAGATGGTCGGCCACACGGGTCTTTCGGCTCTATCTGGTCCTTCCTTCGTCACCGGGAGGGCCCGCCGCCGTTCACCCACCGTTCACTGTGCTGGTCG (double strand) [pit (MLP_RS00235) promoter]” it is “binds”.
